Ten molecules from patent publication US20260265381A1 (Hoffmann-La Roche, published 2026) can be followed below.

Test [1] deals with T1, human HLA-G expressed on cells (JEG3 cells, natural; SKOV3 cells transfected with recombinant HLA-G) (human, UniProt P17693 25-338). Kind of test: cell-based or functional assay.
Test [2] addresses T1, human HLA-G expressed on cells (JEG3 …). Kind of test: cell-based or functional assay. This is another data set of the same source.
Test [3] shares this target. Kind of test: flow cytometry, cell binding on JEG3 cells. For orientation: Flow cytometry measures light scatter and fluorescence of single cells or particles in a stream.
For test [4] the target is unchanged. Nature of the test: flow cytometry, cell binding on SKOV3 HLA-G cells.
In test [5] the target is T2, human CD3 expressed on cells (Jurkat NFAT reporter cells; human T cells isolated from PBMCs) (human, UniProt P07766 23-207).
T2 construct: on cells it is part of the CD3/TCR complex; also called CD3 on Jurkat cells; CD3 expressed on T-cells
Kind of test: flow cytometry on human T cells isolated from PBMCs; detection with Alexa Fluor 488 anti-human IgG.

The target of test [6] is T3, recombinant single-chain HLA-G monomer/human HLA-G β2M MHC class I complex (human).
T3 construct: also called wt-HLA-G complex; wt-HLA-G antigen
Nature of the test: SPR single cycle kinetics (Biacore T200, 25 C); antibody captured via Fc on CM3 chip, HLA-G complex as analyte.

T2 sequence (P07766 23-207 limits assumed): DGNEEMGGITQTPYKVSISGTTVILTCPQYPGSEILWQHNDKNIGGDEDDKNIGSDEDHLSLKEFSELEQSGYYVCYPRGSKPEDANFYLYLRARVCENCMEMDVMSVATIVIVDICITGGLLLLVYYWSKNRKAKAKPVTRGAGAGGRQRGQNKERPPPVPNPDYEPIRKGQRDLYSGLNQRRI

B1: P1AF7977 (HLA-G-0090-VL-S32P/CD3 P035-093 (P035)) (bispecific antibody, human IgG1, kappa, L234A L235A)
light 1: EVQLLESGGGLVQPGGSLRLSCAASGFTFSSYAMNWVRQAPGKGLEWVSRIRSKYNNYATYYADSVKGRFTISRDDSKNTLYLQMNSLRAEDTAVYYCVRASNFPASYVSYFAYWGQGTLVTVSSASVAAPSVFIFPPSDEQLKSGTASVVCLLNNFYPREAKVQWKVDNALQSGNSQESVTEQDSKDSTYSLSSTLTLSKADYEKHKVYACEVTHQGLSSPVTKSFNRGEC
light 2: not shown
heavy 1: QVQLQQSGPGLLKPSQTLSLTCAISGDSVSSNRAAWNWIRQSPSRGLEWLGRTYYRSKWYNDYAVSVQGRITLIPDTSKNQFSLRLNSVTPEDTAVYYCASVRAVAPFDYWGQGVLVTVSSASTKGPSVFPLAPSSKSTSGGTAALGCLVEDYFPEPVTVSWNSGALTSGVHTFPAVLQSSGLYSLSSVVTVPSSSLGTQTYICNVNHKPSNTKVDEKVEPKSCDKTHTCPPCPAPEAAGGPSVFLFPPKPKDTLMISRTPEVTCVVVDVSHEDPEVKFNWYVDGVEVHNAKTKPREEQYNSTYRVVSVLTVLHQDWLNGKEYKCKVSNKALGAPIEKTISKAKGQPREPQVCTLPPSRDELTKNQVSLSCAVKGFYPSDIAVEWESNGQPENNYKTTPPVLDSDGSFFLVSKLTVDKSRWQQGNVFSCSVMHEALHNHYTQKSLSLSP
heavy 2: not shown
notes: 2+1 T cell bispecific: light chain 1 is the crossed VH(CD3)-CL chain, light chain 2 the HLA-G light chain (two copies, CLM-00046); also called HLA-G TCB
Take B1: in test [1], the “IFNgamma induction EC50 (nM), JEG3” value was 20 nM and the “IFNgamma induction EC50 (nM), SKOV3 HLA-G” value was 30 nM. Moreover, in test [2], the “T cell mediated cytotoxicity induction EC50 (nM), JEG3 (Caspase 8 activation)” value was determined as 12 nM and the “T cell mediated cytotoxicity induction EC50 (nM), SKOV3 HLA-G (Caspase 8 activation)” value worked out at 1.4 nM. For the same molecule, the EC50 – broadly, the concentration at which the effect is half-maximal – in test [3] came to 0.42 nM. Further, in test [4], the EC50 is 1.5 nM. For the same molecule, in test [5], the binding result is “binds”.

B2: P1AF7979 (HLA-G-0090-VL-S32P/CD3 V9) (bispecific antibody, human IgG1, kappa, L234A L235A)
light 1: EVQLVESGGGLVQPGGSLRLSCAASGYSFTGYTMNWVRQAPGKGLEWVALINPYKGVSTYNQKFKDRFTISVDKSKNTAYLQMNSLRAEDTAVYYCARSGYYGDSDWYFDVWGQGTLVTVSSASVAAPSVFIFPPSDEQLKSGTASVVCLLNNFYPREAKVQWKVDNALQSGNSQESVTEQDSKDSTYSLSSTLTLSKADYEKHKVYACEVTHQGLSSPVTKSFNRGEC
light 2: not shown
heavy 1: QVQLQQSGPGLLKPSQTLSLTCAISGDSVSSNRAAWNWIRQSPSRGLEWLGRTYYRSKWYNDYAVSVQGRITLIPDTSKNQFSLRLNSVTPEDTAVYYCASVRAVAPFDYWGQGVLVTVSSASTKGPSVFPLAPSSKSTSGGTAALGCLVEDYFPEPVTVSWNSGALTSGVHTFPAVLQSSGLYSLSSVVTVPSSSLGTQTYICNVNHKPSNTKVDEKVEPKSCDKTHTCPPCPAPEAAGGPSVFLFPPKPKDTLMISRTPEVTCVVVDVSHEDPEVKFNWYVDGVEVHNAKTKPREEQYNSTYRVVSVLTVLHQDWLNGKEYKCKVSNKALGAPIEKTISKAKGQPREPQVCTLPPSRDELTKNQVSLSCAVKGFYPSDIAVEWESNGQPENNYKTTPPVLDSDGSFFLVSKLTVDKSRWQQGNVFSCSVMHEALHNHYTQKSLSLSP
heavy 2: not shown
notes: as for B1
Consider B2, for which, in test [1], the “IFNgamma induction EC50 (nM), JEG3” value is 29 nM and the “IFNgamma induction EC50 (nM), SKOV3 HLA-G” value was determined as 16 nM. Further, in test [2], the “T cell mediated cytotoxicity induction EC50 (nM), JEG3 (Caspase 8 activation)” value is 4.6 nM and the “T cell mediated cytotoxicity induction EC50 (nM), SKOV3 HLA-G (Caspase 8 activation)” value worked out at 1 nM. The EC50 in test [3] was 0.36 nM. The EC50 in test [4] is 0.58 nM. For the same molecule, the binding result in test [5] is recorded as “binds”.

B3: P1AF7978 (HLA-G-0090-VL-S32P/CD3 Clone 22 (Cl22)) (bispecific antibody, human IgG1, kappa, L234A L235A)
light 1: EVQLLESGGGLVQPGGSLRLSCAASGFQFSSYAMNWVRQAPGKGLEWVSRIRSKYNNYATYYADSVKGRFTISRDDSKNTLYLQMNSLRAEDTAVYYCVRHTTFPSSYVSYYGYWGQGTLVTVSSASVAAPSVFIFPPSDEQLKSGTASVVCLLNNFYPREAKVQWKVDNALQSGNSQESVTEQDSKDSTYSLSSTLTLSKADYEKHKVYACEVTHQGLSSPVTKSFNRGEC
light 2: not shown
heavy 1: QVQLQQSGPGLLKPSQTLSLTCAISGDSVSSNRAAWNWIRQSPSRGLEWLGRTYYRSKWYNDYAVSVQGRITLIPDTSKNQFSLRLNSVTPEDTAVYYCASVRAVAPFDYWGQGVLVTVSSASTKGPSVFPLAPSSKSTSGGTAALGCLVEDYFPEPVTVSWNSGALTSGVHTFPAVLQSSGLYSLSSVVTVPSSSLGTQTYICNVNHKPSNTKVDEKVEPKSCDKTHTCPPCPAPEAAGGPSVFLFPPKPKDTLMISRTPEVTCVVVDVSHEDPEVKFNWYVDGVEVHNAKTKPREEQYNSTYRVVSVLTVLHQDWLNGKEYKCKVSNKALGAPIEKTISKAKGQPREPQVCTLPPSRDELTKNQVSLSCAVKGFYPSDIAVEWESNGQPENNYKTTPPVLDSDGSFFLVSKLTVDKSRWQQGNVFSCSVMHEALHNHYTQKSLSLSP
heavy 2: not shown
notes: 2+1 T cell bispecific: light chain 1 is the crossed VH(CD3)-CL chain, light chain 2 the HLA-G light chain (two copies, CLM-00046); also called HLA-G-0090-VL-S32P/CD3 Cl22; HLA-G TCB
Regarding B3, in test [1], the “IFNgamma induction EC50 (nM), JEG3” value is 2.2 nM and the “IFNgamma induction EC50 (nM), SKOV3 HLA-G” value was 2.6 nM. In addition, in test [2], the “T cell mediated cytotoxicity induction EC50 (nM), JEG3 (Caspase 8 activation)” value stood at 2.6 nM and the “T cell mediated cytotoxicity induction EC50 (nM), SKOV3 HLA-G (Caspase 8 activation)” value turned out to be 1.36 nM. Besides, the EC50 in test [3] is 0.12 nM. The EC50 in test [4] was 0.15 nM. In addition, the binding result in test [5] is given as “binds”.

B4: HLA-G-0090-VL-N31D (antibody, IgG1, V domains shown)
VH: QVQLQQSGPGLLKPSQTLSLTCAISGDSVSSNRAAWNWIRQSPSRGLEWLGRTYYRSKWYNDYAVSVQGRITLIPDTSKNQFSLRLNSVTPEDTAVYYCASVRAVAPFDYWGQGVLVTVSS
VL: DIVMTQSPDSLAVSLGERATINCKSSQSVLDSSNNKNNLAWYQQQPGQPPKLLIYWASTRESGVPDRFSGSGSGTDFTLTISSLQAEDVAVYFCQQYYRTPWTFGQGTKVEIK
notes: also called HLA-G-0090-N31D
On to B4, for which, in test [6], the Kd – broadly, the concentration at which binding is half-saturated – was 20.2 nM; the koff (usually the rate constant with which the complex falls apart) amounted to 0.00391 s⁻¹; the kon (commonly the second-order rate constant of association) turned out to be 194000 M⁻¹ s⁻¹; the t½ (usually the time in which the quantity being followed falls by half) came out at 2.96 min.

B5: HLA-G-0090-VL-N31Q (antibody, IgG1, V domains shown)
VH: QVQLQQSGPGLLKPSQTLSLTCAISGDSVSSNRAAWNWIRQSPSRGLEWLGRTYYRSKWYNDYAVSVQGRITLIPDTSKNQFSLRLNSVTPEDTAVYYCASVRAVAPFDYWGQGVLVTVSS
VL: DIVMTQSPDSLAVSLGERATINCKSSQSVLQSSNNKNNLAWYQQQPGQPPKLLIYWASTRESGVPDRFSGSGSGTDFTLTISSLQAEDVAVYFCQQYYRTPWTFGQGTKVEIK
notes: also called HLA-G-0090-N31Q
In the case of B5, in test [6], the Kd was 2 nM, the dissociation rate constant (koff) was 0.00373 s⁻¹, the kon came out at 1.91e+06 M⁻¹ s⁻¹ and the t½ is 3.1 min.

B6: HLA-G-0090-VL-N31L (antibody, IgG1, V domains shown)
VH: QVQLQQSGPGLLKPSQTLSLTCAISGDSVSSNRAAWNWIRQSPSRGLEWLGRTYYRSKWYNDYAVSVQGRITLIPDTSKNQFSLRLNSVTPEDTAVYYCASVRAVAPFDYWGQGVLVTVSS
VL: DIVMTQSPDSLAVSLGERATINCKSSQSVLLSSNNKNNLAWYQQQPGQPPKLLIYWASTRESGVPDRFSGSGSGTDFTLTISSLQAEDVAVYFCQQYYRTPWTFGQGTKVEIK
notes: also called HLA-G-0090-N31L
For the molecule B6, in test [6], the Kd was 1.7 nM, the koff was found to be 0.00871 s⁻¹, the kon turned out to be 5.28e+06 M⁻¹ s⁻¹ and the t½ amounted to 1.33 min.

B7: HLA-G-0090-VL-N31Y-N38Y (antibody, IgG1, V domains shown)
VH: QVQLQQSGPGLLKPSQTLSLTCAISGDSVSSNRAAWNWIRQSPSRGLEWLGRTYYRSKWYNDYAVSVQGRITLIPDTSKNQFSLRLNSVTPEDTAVYYCASVRAVAPFDYWGQGVLVTVSS
VL: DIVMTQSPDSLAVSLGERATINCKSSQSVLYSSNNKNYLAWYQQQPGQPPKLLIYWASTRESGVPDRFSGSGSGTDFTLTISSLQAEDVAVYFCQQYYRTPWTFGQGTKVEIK
notes: also called HLA-G-0090-VL-N31Y-N38Y-GL; HLA-G-0090-N31Y-N38Y
As to B7, in test [6], the Kd came to 23.6 nM and the t½ came out at 0 min.

B8: HLA-G-0090-VL-N31S (antibody, IgG1, V domains shown)
VH: QVQLQQSGPGLLKPSQTLSLTCAISGDSVSSNRAAWNWIRQSPSRGLEWLGRTYYRSKWYNDYAVSVQGRITLIPDTSKNQFSLRLNSVTPEDTAVYYCASVRAVAPFDYWGQGVLVTVSS
VL: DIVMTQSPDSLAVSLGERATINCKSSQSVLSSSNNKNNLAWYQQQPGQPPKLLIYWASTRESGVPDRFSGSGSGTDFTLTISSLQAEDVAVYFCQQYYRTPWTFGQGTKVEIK
notes: also called HLA-G-0090-N31S
As to B8, in test [6], the Kd came out at 2.4 nM, the koff came out at 0.000922 s⁻¹, the on-rate (kon) amounted to 383000 M⁻¹ s⁻¹ and the t½ is 12.5 min.

B9: HLA-G-0090-VL-N31T (antibody, IgG1, V domains shown)
VH: QVQLQQSGPGLLKPSQTLSLTCAISGDSVSSNRAAWNWIRQSPSRGLEWLGRTYYRSKWYNDYAVSVQGRITLIPDTSKNQFSLRLNSVTPEDTAVYYCASVRAVAPFDYWGQGVLVTVSS
VL: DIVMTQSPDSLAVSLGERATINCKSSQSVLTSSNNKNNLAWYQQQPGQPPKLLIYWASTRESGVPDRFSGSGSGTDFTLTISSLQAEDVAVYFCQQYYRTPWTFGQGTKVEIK
notes: also called HLA-G-0090-N31T
Consider B9, for which, in test [6], the Kd amounted to 2.3 nM, the koff came to 0.000769 s⁻¹, the kon is 342000 M⁻¹ s⁻¹ and the t½ came to 15 min.

B10: HLA-G-0090-VL-N31Y (antibody, IgG1, V domains shown)
VH: QVQLQQSGPGLLKPSQTLSLTCAISGDSVSSNRAAWNWIRQSPSRGLEWLGRTYYRSKWYNDYAVSVQGRITLIPDTSKNQFSLRLNSVTPEDTAVYYCASVRAVAPFDYWGQGVLVTVSS
VL: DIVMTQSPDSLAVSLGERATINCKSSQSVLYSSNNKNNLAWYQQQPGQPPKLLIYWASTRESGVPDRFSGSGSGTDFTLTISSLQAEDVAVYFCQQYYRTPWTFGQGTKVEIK
notes: also called HLA-G-0090-N31Y
Regarding B10, in test [6], the Kd worked out at 2 nM, the koff was found to be 0.00107 s⁻¹, the kon is 549000 M⁻¹ s⁻¹ and the t½ stood at 10.8 min.
